Results: article PMC11533990

Target: Full-length wild-type (WT) OaPAC, photoactivated adenylate cyclase from Oscillatoria acuminata (Oscillatoria acuminata)
Assay: crystal structure; serial femtosecond crystallography (SFX) at the European XFEL, room temperature (294 K), microcrystals grown in 0.06 M divalents (MgCl2/CaCl2), 0.1 M Tris-Bicine pH 8.5, 30% PEG 550 MME/PEG 20 000; space group P2(1)2(1)2, one monomer in the asymmetric unit, dimer by crystal symmetry; 1.75 A

stoichiometry N: 2
Substance: Full-length wild-type (WT) OaPAC, photoactivated adenylate cyclase from Oscillatoria acuminata (enzyme)
